Source: the DeepSol protein solubility set

Test: soluble on expression in E. coli; label from the status in PepcDB or PDB records

Sequence | soluble on expression in E. coli
MSFITAFRERVFIASGDLIRTFRISEETELKNFISWSKINPERIQKPSFDIEKELKAVEKRVILCLAHSNVLTTHGRRLVAVGTNEKQIHVFEYFVNDKGDIVTAEHIVTSVVPKAPTAIVFDKEDAYVVVGDRAGDVHRFSVLNGSAIEMAGAISMILDVAFSPDGKRLLMADRDEKVRALRYPATSVIDSFFLGHTEYVKTLAVQDNDSLWSSGGDKNLYNWSIAKCSAPRRTLDLSQFDAPIRKISINLQHKKIAVIFEKIETVVIVDLNQESLQTTSVSIVGESQCLDIASTKDYFAVLGRSTVHLIDLNNMEQKFVPIDEELTITLTSTNDAIDNLFKNVTHNNQQEYEKRKADKFEQIEKKKRRLNEDINGDDGEGPGPSNS | not soluble
MALIELRHVKKEFSGKAGKVTALKDIDLTVESGDIYGIIGYSGAGKSTLVRLLNGLETPTEGEVEIQGQDIALLPNKELRNFRKKIGMIFQHFNLLWSRTVLENIMLPLEIAGVPKQNRKSRAEELIKLVGLEGRETAYPSQLSGGQKQRVGIARALANNPDILLCDEATSALDPQTTDEVLELLLKINQELNLTVVLITHEMHVIRKICNRVAVMEYGEIVEEGKVIDIFKKPQTEIAKRFIQQEADKNIEETELVVEEMLEQYPNGKIVRLLFHGEQAKLPIISHIVQEYQVEVSIIQGNIQQTKQGAVGSLYIQLLGEEQNILAAIEGLRKLRVETEVIGNE | not soluble
MGSDKIHHHHHHMIVAVGKDEEKIKESLEEMKGLCKTLGVEVVEWLWQKRAKPDPATYLGKGKLQKLKEVVEFCEADLVVVDDEITPVQYKNMQSELNVDVLDRTQVILEIFARHATSEEGKLQVEMASLLYELPRLVGKGEELSRLGGGIGTRGPGEPLLEVLRRHIKNRIAQLRKRLKEIEQERNTQRKQRLEKKIPHVSIVGYTNAGKSTLLKVLTDSDVYVADKLFATLEPVTRRLKLKSGRVILVSDTVGFIRKLPHTIVSAFKATLEEIKYSDVLIHLVDASDPYLEEKMKASEKVLEEIGADKIPRILVFNKIDLCPRERIETLKWKYPEALFISAEKRIGLDQLLDRLEEVISQRDVQETLKVPLEKIGQIYALKDRLEILNEDYREGYALITLKTDRETLEMLKRKVAS | not soluble
MKAAHIIDEARLGIMLNDLRLPTIKTLWPQFAEQADKEGWPAARFLSAIAEHELAERDRRRVERHLAEAHLPPGKTLDSFAFDAVPMVSKAQVMAMTAGDSWLAKGANILLFGPPGGGKSHLAAAIGLALIENGWRVLFTRTTDLVQKLQVARRELQLESAIAKLDKFDLLILDLEHHHHHH | not soluble
MAKSRTIYVCAECGGTSLKWQGKCPHCSAWNTLEETVESAASSAGGHRYAPLAAASPVRSLSEIEARETPRQPTGLDEFDRVLGGGLVAGAVVLIGGDPGIGKSTLLLQALASLSATTKVLYVTGEESAEQVALRARRLGLQTGNVDLLAEIRLEAIQAAVSEQKPTVAVIDSIQTLYSGELTAAPGSVSQVRECAAQLTRLAKQTGIAIVMIGHVTKDGALAGPRVLEHIVDTVLYFEGDTHSSFRLVRAFKNRFGAVNELGVFAMTDRGLRGVANPSALFLSQHQQQVAGSCVLATQEGTRPLLVEVQALVDTSHAPNPRRLTVGLEGNRLAMLLAVMHRHAGVSTYDQDVFVNAVGGVRITEPAADLPVLLAIMSSLRDKPLPAGLVAFGEIGLAGEIRPAPRGQERLREAAKLGFSVALIPKANAPRQPIEGLEIWAVDRLDAALDKLRLEHHHHHH | not soluble
MPITIGNGFLKSEILTNSPRNTKEAWWKVLWEKIKDFFFSTGKAKADRCLHEMLFAERAPTRERLTEIFFELKELACASQRDRFQVHNPHENDATIILRIMDQNEENELLRITQNTDTFSCEVMGNLYFLMKDRPDILKSHPQMTAMIKRRYSEIVDYPLPSTLCLNPAGAPILSVPLDNIEGYLYTELRKGHLDGWKAQEKATYLAAKIQSGIEKTTRILHHANISESTQQNAFLETMAMCGLKQLEIPPPHTHIPIEKMVKEVLLADKTFQAFLVTDPSTSQSMLAEIVEAISDQVFHAIFRIDPQAIQKMAEEQLTTLHVRSEQQSGCLCCFLLEHHHHHH | soluble
SNAMNDIILKSLSTLITEQRNPNSVDIDRQSTLEIVRLMNEEDKLVPLAIESCLPQISLAVEQIVQAFQQGGRLIYIGAGTSGRLGVLDASECPPTFGVSTEMVKGIIAGGECAIRHPVEGAEDNTKAVLNDLQSIHFSKNDVLVGIAASGRTPYVIAGLQYAKSLGALTISIASNPKSEMAEIADIAIETIVGPEILTGSSRLKSGTAQKMVLNMLTTASMILLGKCYENLMVDVQASNEKLKARAVRIVMQATDCNKTLAEQTLLEADQNAKLAIMMILSTLSKSEAKVLLERHQGKLRNALSK | soluble
MSLLQTKPYTFWFITGSQHLYGEDAIEQVRQHSQTMVEKLNKIGELPYTIELKEVLTTPDAIRKMVIAANSDDDCAGMITWMHTFSPAKMWINGLKQLKKPLLHLHTQFNREIPYDDIDMDFMNLNQSAHGDREYGHIGARLNISRKVIVGHWQNNDVQERLGAWMRTAAAFVDGHHLKVARFGDNMREVAVTEGDKVEAQIQFGWSITAFGIGDLVEKMKAVSEDEVRRLFDEYQELYRLSPSILEQDEVKAAVLEQAKMELALKEFLEEGGYTAFTTNFEDLHGMKQLPGLAVQRLMAEGYGFGGEGDWKTAALLRMMKIIADGKGTSFMEDYTYHLAEGNELVLGSHMLEICPTIAANQPEIQVHPLGIGGKEDPARLVFDGADGPALNASLIDLGHRFRLVVNEVEAIKPERDMPKLPVAKVLWKCKPSLSEATEAWIHAGGAHHTVFSFEVTPEQLYDWATLADIEVVFINDKTDVLQFQQQLQWNEAFRRLFKEGHHHHHH | soluble
MSLLLEPSAAMIKEQKLYREMGLTDEEFARIEAILGRLPNYTETGIFAVMWSEHCSYKNSKPVLKKFPTDGPHVLQGPGEGAGIVDIGDGLAVAFKIESHNHPSAIEPYQGAATGVGGIIRDVFSMGARPIALLNSLRFGELTSPRVKYLFEQVVAGIAGYGNCVGIPTVGGEVQFDPAYEGNPLVNAMCVGIIRHEDIQRGVATGVGNTVMYVGAKTGRDGIHGATFASEELSEQSEAKRPAVQVGDPFMEKLLLEACLEAVKSDALVGIQDMGAAGLTSSSAEMASKGGFGIEMNLDLVPQREAGMTPYEMMLSESQERMLLVVKQGCEDEIAAIFAKYGLEAKAIGKVTDDKMLRLFFRGEVAAEIPVDALAKDAPVYHKPSAEPAYYREFQAMPPYIPHIEDYNQTLLGLLAQPTIASKEWVYDQYDYMVRTNTVVAPGSDAAVVRIRGTNKALALTTDCNSRYLYLDPETGGKIAVAEAARNVVCSGAKPLAITDCLNFGSPEKPEIFWQLEKAVDGMSEACRALGTPVVSGNVSLYNETNGEAVYPTPVVGMVGLIDDLSHITTQSFKQAGDLIYVIGEAKPEFGGSELQKWLEGRIFGKAPEIDLEVEASRQRQLLAAIRAGVVASAHDIAEGGLAVALAECVMGASGLGAKVTIGGDLVSELFSETQSRFVVSVKKEQKEAFEQLVEAKQIGEVTDDGAFVVNGEHGETLIHLSVAKMRNVWKGAIPCLLKSKD | not soluble
MKTLFLQYPACSTCQKAKKWLIENNIEYTNRLIVDDNPTVEELKAWIPLSGLPVKKFFNTSGVVYKELKLSSKLPTMTEEEQIALLATNGKLVKRPLVVTERFVLVGFKPEEWEKL | not soluble
AEEELETPTPTQRGEAESRGDGLVDVMWEYKWENTGDAELYGPFTSAQMQTWVSEGYFPDGVYCRKLDPPGGQFYNSKRIDFDLYT | soluble
MGYNKPAAWKPLDRTDWDVSFSYAYGYDEAQFGGRLAVDGDVSTTWFTWGVVSAGECWWATTLPAPTHLTGFSLTRQTTFGSSYNVREAKVKVKKEGDTEWTEAGLFRFGSFKGNDPQYAVFIPAVENVKEFRIDIVSPADFTGFAELDLYQLEHHHHHH | soluble
MSLNQFTTDLVQALVQKENVTEIFRSHLENAVNTLLASELTAFLDYEKYDRIGFNTGNSRNGSYERTLHTEFGELHLVIPRDRNGDFKQQTVAPYKRSNDTLEAFVIHMFQKGVTTAEIAHLMERMYGHHYTPQTISNMTKVMSEQVEAFRDRTLCARYACVYLDATYIALKRDTVSKEAVYIAVGIREDGSKEVLGYTIAPNESAFVWKELLEDIKSRGVEEILLFISDGLKGISDSVFSIYPASSYQTCCVHLSRTIAHKVRVSDRAEICEDFKSVYRAESLEMGQQALHSFIEKWKSKYPKVTKPLLNNSYLFTFYSFPKSIWRSIYSTNLIESFNKQIKKYSKRKEQFPNEESLERFLVSQFDQYNQRFATRCHIGFDQARAELQMMFKTNEGHHHHHH | soluble
